The numbers were not newly measured in article PMC2930029, which cites them from elsewhere.

Like-named read-outs stand apart in the source and are kept apart here.

The target of data set [1] is C3b C3b (Homo sapiens) (UniProt P01024). Nature of the data set: SPR.
The target is the same in data set [2].

Sequence of C3b C3b (Homo sapiens) (P01024 566-670): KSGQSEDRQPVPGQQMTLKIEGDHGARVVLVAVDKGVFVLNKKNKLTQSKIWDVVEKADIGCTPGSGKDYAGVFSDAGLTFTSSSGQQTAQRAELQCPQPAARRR
Sequence of Factor H fH(1-4) (P08603 19-264): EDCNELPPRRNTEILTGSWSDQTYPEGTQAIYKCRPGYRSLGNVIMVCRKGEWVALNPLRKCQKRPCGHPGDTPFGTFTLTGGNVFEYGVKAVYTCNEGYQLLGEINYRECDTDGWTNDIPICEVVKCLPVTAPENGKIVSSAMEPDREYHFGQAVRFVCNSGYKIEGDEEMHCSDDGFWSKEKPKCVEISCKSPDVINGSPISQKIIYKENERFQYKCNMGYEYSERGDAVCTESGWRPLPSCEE
Sequence of SCIN (A7X482 32-116): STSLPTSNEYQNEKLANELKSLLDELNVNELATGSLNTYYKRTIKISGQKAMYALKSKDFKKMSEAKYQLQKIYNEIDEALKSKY
Sequence of Efb (P68799 30-165): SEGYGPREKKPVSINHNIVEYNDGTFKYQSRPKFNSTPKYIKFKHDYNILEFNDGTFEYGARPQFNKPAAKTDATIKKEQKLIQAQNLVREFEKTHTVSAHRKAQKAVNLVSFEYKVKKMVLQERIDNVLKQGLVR

Take Efb (from UniProt P68799): in data set [1], the Kd is 10 nM.
In the case of Factor H fH(1-4) (from UniProt P08603), the Kd in data set [2] is 11 µM.
In the case of SCIN (from UniProt A7X482), in data set [1], the Kd is 180 nM.
